Test [1] has as its target T1, Fc-, mouse IgG2a-, or His-tagged human CD137 (human, UniProt Q07011 24-186).
T1 construct: Sources were ACRO Biosystems, Sino Biological and internal; not shown: Fc, mouse IgG2a or His tag
In words: BLI (Octet HTX), tagged CD137 on biosensor, Fab 0-500 nM in solution, global 1:1 fit, apparent KD; lower end of the printed range 50-70 nM. As for the experimental part: (§1) The anti-CD137 antibodies were further tested for their binding to CD137 from multiple species. Specifically, mAb1, mAb8 and mAb10 were analyzed for binding to human, mouse, cynomolgus and canine CD137. Kinetic experiments were performed on OCTET HTX (ForteBio) in kinetics buffer (1×PBS, pH 7.4, 0.1 mg/ml BSA, and 0.002% Tween 20). Fc-, mouse IgG2a-, or His-tagged CD137 (human, mouse, cyno or canine) were loaded for 5 minutes on pre-hydrated biosensors, AHC, AMC or NTA respectively. The sensors were then dipped into Fabs (0, 5.12, 12.8, 32, 80, 200 and 500 nM) for 5 minutes of association, following by 15 minutes of dissociation. Results were analyzed with ForteBio Data Analysis 9.0 and fit globally to a 1:1 binding model to determine the apparent KD. KD for human and mouse CD137 binding were confirmed by using antigens from different sources (ACRO Biosystems, Sino Biological and internal).
Background: In BLI a coated tip is dipped into the sample, and binding shifts an interference pattern.

Test [2] deals with T1, Fc-, mouse IgG2a-, or His-tagged human …. In words: BLI (Octet HTX), tagged CD137 on biosensor, Fab 0-500 nM in solution, global 1:1 fit, apparent KD; upper end of the printed range 50-70 nM. As for the experimental part:
as §1

This note sets out measurements from patent US20250313645A1 (COMPASS THERAPEUTICS, published 2025).

B1: mAb1 Fab (Fab, V domains shown)
VH: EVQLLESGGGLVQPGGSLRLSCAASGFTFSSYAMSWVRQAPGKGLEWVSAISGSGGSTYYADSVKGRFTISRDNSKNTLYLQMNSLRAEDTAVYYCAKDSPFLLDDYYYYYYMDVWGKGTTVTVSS
VL: DIQMTQSPSSVSASVGDRVTITCRASQGISSWLAWYQQKPGKAPKLLIYAASSLQSGVPSRFSGSGSGTDFTLTISSLQPEDFATYYCQQGHLFPITFGGGTKVEIK
Regarding B1, the Kd in test [1] is at least 50 nM; in test [2] it was at most 70 nM.
